Results as given in US20130035289A1, “PHARMACEUTICAL COMPOSITION FOR TREATMENT OF THROMBOSIS-RELATED DISEASES COMPRISING A FRAGMENT OF PROLACTIN (PRL)-GROWTH HORMONE (GH)-PLACENTAL LACTOGEN (PL)-FAMILY PROTEIN” (UNIVERSITE DE LIEGE, priority 2010, published 2013).

T1: PAI-1 (Mus musculus, UniProt P22777)
T1 construct: from tissue; host or cells: BalbC Njrj mice, in vivo (blood)
T1 sequence (P22777 23-402): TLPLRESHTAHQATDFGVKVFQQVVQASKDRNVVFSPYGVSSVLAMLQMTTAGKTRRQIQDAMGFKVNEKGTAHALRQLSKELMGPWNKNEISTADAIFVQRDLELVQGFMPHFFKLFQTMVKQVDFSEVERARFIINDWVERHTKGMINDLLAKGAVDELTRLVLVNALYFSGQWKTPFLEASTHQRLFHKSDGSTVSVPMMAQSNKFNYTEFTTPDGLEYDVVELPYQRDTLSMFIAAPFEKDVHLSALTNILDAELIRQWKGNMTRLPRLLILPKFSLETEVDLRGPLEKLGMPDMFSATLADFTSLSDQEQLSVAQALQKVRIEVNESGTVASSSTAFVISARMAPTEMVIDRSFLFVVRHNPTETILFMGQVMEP


Experiments:
[1] = test system: ABAE cells; assay: Endothelial cell migration (wound assay); assay type: cell-based, bovine; details: for anti-migratory function: down-regulation of PAI-1 expression by si-RNA
Experimental: A layer of confluent ABAE cells in a 48-well tissue culture dish coated with 0.2% gelatin was wounded with a head of 200-μl tips. The experiment was performed in the presence of 50 ng/ml VEGF and 10 ng/ml bFGF. […] ID NO: 35); PAI-1 […] ID NO: 36).

[2] = molecular target: T2, PAI-1 (Homo sapiens, UniProt P05121); assay: Gal4 yeast two-hybrid system; assay type: binding
T2 construct: gift of Pr; P. Declerck

[3] = molecular target: T2, PAI-1; assay: In vitro clot lysis assay in pooled normal human plasma with added PAI-1 and tPA; assay type: biochemical; details: 3 μM protein, recombinant PAI-1, tPA
Experimental: Clot lysis was performed as follows: pooled normal plasma were used in citrated tube. Recombinant wild type PAI-1 was incubated in the presence or in the absence of 16K hPRL (3 μM), 14K hGH (3 μM) or different peptides (25 μM) for 10 min at 37° C., before to be added to diluted plasma in tris tween buffer (75 μl of plasma in 200 μl of 10 mM TRIS pH 7.5, 0.01% tween 20), followed by a second incubation for 10 min at 37° C. tPA was added to each tube at the end to reach a final volume of […]. Aliquots from each tube (80 μl) were added in duplicate to 96 wells, each containing 20 μl CaCl2 to give the following final concentration per well of 10 mM. Clot formation and dissolution were monitored at RT measuring turbidity at 405 nm in 5 min intervals.

[4] = molecular target: T2, PAI-1; assay: Inhibition of PAI-1 anti-proteolytic activity, uPA/plasminogen chromogenic (colorimetric) assay; assay type: biochemical; details: uPA, bovine plasminogen, PAI-1, absorbance 405 nm
Experimental: The main physiological function of PAI-1 is to inhibit uPA and tPA proteolytic activity. […] A chromogenic substrate for plasmin (Spectrozyme PL: 0.5 mM. American Diagnostica INC) in PBS was added to the mixture in 96-well microtitration plates and kept at room temperature. The release of free p-nitro-aniline from the chromogenic substrate was measured spectrophotometrically. The activity of plasmin was determined as the absorbance at 405 nm.

[5] = molecular target: T1, PAI-1; assay: Co-immunoprecipitation with anti-PAI-1 antibody and Western blot, mouse PAI-1; assay type: binding; details: for interaction with PAI-1 in plasma samples: mouse plasma
Experimental: The interaction was further confirmed by pull-down affinity assays. For the immunoprecipitation 4 μg of recombinant 16K hPRL or 14 hGH were mixed with 3 μg of recombinant wt PAI-1, 500 μl of conditioned media from HUVEC cells, 300 μl of human plasma or 100 μl of mouse plasma. The mixtures were incubated for 10 min at 37° C. 6 μg of mouse monoclonal antibody against PAI-1 (clone 33H1F7, recognize human and mouse PAI-1) was added to each tube and incubated overnight at 4° C. under rotation. For the experiments with mice expressing 16K hPRL, 300 μl of plasma from mice injected with Null-Ad or 16K-Ad adenovirus were collected 5 days after virus injection, and immunoprecipitation was performed as described above with same PAI-1 monoclonal antibody (33H1F7). Fifty microliters of protein A agarose was added to the mix and incubated overnight at 4° C. under rotation. After centrifugation for 1 min at 6000 rpm the supernatants were discarded and the pellets (containing the beads) were washed 5 times with PBS. After a new centrifugation, the beads were resuspended in 30 μl 1×β-mercaptoethanol loading buffer and boiled at 100° C. for 5 min, then left on ice for 5 min. The beads were centrifuged for 5 min at 4° C., then the supernatants were subjected to SDS-PAGE (12% acrylamide) for Western blot analysis.
For Western Blot Analysis cytoplasmic cell lysate, samples of different CoIP and mouse plasma were separated by SDS-PAGE (12% and 10%) and transferred to a polyvinylidene fluoride membrane (Milipore Corp., Bedford, Mass.). Blots were blocked overnight with 5% milk in Tris-buffered saline with 0.1% Tween 20 and probed for 1 h at RT with primary antibodies: rabbit polyclonal anti-hPRL (DAKO) or rabbit polyclonal anti hGH (home made). After three washes with Tris-buffered saline containing 0.1% Tween 20, antigen-antibody complexes were detected with peroxidase-conjugated goat anti-rabbit secondary antibody and an enhanced fluoro-chemiluminescent system (ECL-plus; Amersham Biosciences, Arlington Heights, Ill.).

[6] = test system: NF-κB; assay: NF-κB activity in ABAE cells; assay type: cell-based, bovine; details: PAI-1 knockdown with si-RNA, 16K PRL 50 nM 1 h
[7] = PAI-1 si-RNA transfected cells plus added human PAI-1
[8] = recombinant wild type PAI-1 added to culture medium

T2 sequence (P05121 24-402): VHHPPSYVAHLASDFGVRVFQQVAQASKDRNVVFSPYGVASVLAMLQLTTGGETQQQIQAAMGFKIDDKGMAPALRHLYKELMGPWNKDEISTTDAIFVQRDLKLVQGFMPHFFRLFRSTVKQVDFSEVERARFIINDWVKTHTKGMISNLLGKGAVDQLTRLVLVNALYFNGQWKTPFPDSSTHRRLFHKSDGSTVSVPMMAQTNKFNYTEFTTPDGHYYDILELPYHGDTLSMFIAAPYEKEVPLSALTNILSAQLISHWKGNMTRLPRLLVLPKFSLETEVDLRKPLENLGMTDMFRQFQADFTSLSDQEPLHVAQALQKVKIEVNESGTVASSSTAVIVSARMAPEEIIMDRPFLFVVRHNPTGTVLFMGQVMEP

Row | Molecule | anti-migratory effect [1, 7] | anti-migratory function [1] | anti-migratory effect [1, 8] | interaction with PAI-1 in yeast two-hybrid system [2] | clot lysis in human plasmas [3] | inhibition of PAI-1 function to inhibit uPA and tPA proteolytic activity [4] | interaction with PAI-1 in plasma samples [5] | 16K PRL action on ECs (NF-κB activity) [6] | complex with endogenous murine PAI-1 in circulation ([5]; plasma of wild type mice 5 days after 16K-Ad injection)
1 | 14K hGH: 14K N-terminal fragment of human growth hormone, recombinant, produced and purified from E. coli (protein) MFPTIPLSRLFDNAMLRAHRLHQLAFDTYQEFEEAYIPKEQKYSFLQNPQTSLSFSESIPTPSNREETQQKSNLELLRISLLLIQSWLEPVQFLRSVFANSLVYGASDSNVYDLLKDLEEGIQTLMGRLEDGSP | restored | reduced significantly | reduced significantly | found to interact | increased significantly | significantly inhibited | interaction was also demonstrated | – | –
2 | 16K hPRL: 16K N-terminal human prolactin fragment, recombinant, produced and purified from E. coli (protein) LPICPGGAARCQVTLRDLFDRAVVLSHYIHNLSSEMFSEFDKRYTHGRGFITKAINSCHTSSLATPEDKEQAQQMNQKDFLSLIVSILRSWNEPLYHLVTEVRGMQEAPEAILSKAVEIEEQTKRLLEGMELIVSQVHP | restored | reduced significantly | reduced significantly | interacts | increased significantly | significantly inhibited | interaction was also demonstrated | reduced | complex formation
